Tests used:
[1] = in vitro biochemical assay for beta-etherase activity on fluorescent substrate MUAV (clarified E. coli cell extracts); conditions: 0.1 mM MUAV substrate; E. coli cell extracts expressing the protein
From the text: The model substrate synthesis 150 for use in the biochemical screening for selective activity can be outsourced through a contract research organization (CRO). The enzyme discovery effort can initially be focused on identifying potential beta-etherase candidate genes identified through bioinformatic methods. […] The fluorescent substrate α-O-(β-methylumbelliferyl)acetovanillone (MUAV), for example, can be used in in vitro assays to identify beta-etherase function (Acme Biosciences, Mt. View, Calif.). The formation of 4 methylumbelliferone (4MU) upon hydrolysis of the aryl ether bond can be monitored by fluorescence, for example, at λex=365 nm and λem=450 nm (or 460 nm).
The enzyme screening 155 is done to identify novel etherases 160. […] Expression of the beta-etherase genes can be done in 5 ml or 25 ml samples of the recombinant E. coli strains in LB medium using induction with IPTG. Following induction, and cell harvest, cell pellets can be lysed using the BPER (Invitrogen) cell lysis system. […] The formation of 4 methylumbelliferone (4MU) upon hydrolysis of the aryl ether bond in MUAV can be monitored by fluorescence at λex=365 nm and λem=460 nm, and can provide quantitative measurement of beta-etherase function. Cell extracts of E. coli transformed with the S. paucimobilis ligE and ligF genes can be the assay positive controls. Test or unknown samples can include, for example, E. coli strains expressing putative beta-etherase genes from N. aromaticovorans.
This example describes a method for gene expression in E. coli, as well as beta-etherase biochemical assays. Expression of known and putative beta-etherase genes was performed using 5 ml cultures of the recombinant E. coli strains described herein in Luria Broth medium by induction of gene expression using isopropylthiogalactoside (IPTG) to a final concentration of 0.1 mM. Following induction, and cell harvest, the cells were disrupted using either sonication or the BPER (Invitrogen) cell lysis system.
In vitro reactions were performed in a total volume of 200 ul and contained: 25 mM TrisHCl pH 7.5; 0.5 mM dithiothreitol; 1 mM glutathione; 0.05 mM or 0.1 mM MUAV; 10 ul of clarified cell extract used to initiate the reactions. Following incubation for 2.5 hours at room temperature, a 50 ul sample of the reactions was terminated using 150 uL of 300 mM glycine/NaOH buffer pH 9. The formation of 4 methylumbelliferone (4MU) upon hydrolysis of the aryl ether bond was monitored by the increase in fluorescence at λex=360 nm and λem=450 nm using a Spectramax UV/visible/fluorescent spectrophotometer.
The total protein concentrations of the cell lysates were determined using the BCA reagent system for protein quantification (Pierce).
Induction might be also performed using IPTG concentrations in the range of 0.01-1 mM. Cell disruption might be also performed using toluene permeabilization, French pressure techniques, or using multiple freeze/thaw cycles in conjunction with lysozyme. Assay conditions might be varied to include TrisHCl at 10-150 mM concentrations and in the pH range of 6.5-8.5; 0-2 mM dithiothreitol; 0.05-2 mM glutathione; 0.01-5 mM MUAV substrate; 22-42° C. reaction temperatures. The biochemical assay might be performed as a fixed time point assay with reaction times ranging from 5 minutes-12 hours, or performed continuously without quenching with glycine/NaOH buffer to extract enzyme kinetic parameters.

[2] = LigDFEG gene cluster, FIG. 2B; cited from earlier work

Row | Molecule | total activity (beta-etherase) [1] | enzyme activity shown by gene product [2]
1 | ligE: S. paucimobilis beta-etherase, positive control, GenBank BAA02032.1, SEQ ID NO:1 (protein) MARNNTITLYDLQLESGCTISPYVWRTKYALKHKGFDIDIVPGGFTGILERTGGRSERVPVIVDDGEWVLDSWVIAEYLDEKYPDRPMLFEGPTQKNLMKFLDNWLWSTAVGPWFRCYILDYHDLSLPQDRDYVRWSREQWFLGGQRLEDVQAGREDRLPLVPPTLEPFRRILAETKWLGGDQPNFADYSALAVFLWTASVARTPPLTEDDPLRDWLDRGFDLFDGLGRHPGMNPLFGLKLREGDPEPFVRQTGPAGAGGQALNKGPQTTKMPPRVAEKAD | 7 rfu/ug | β-etherase activity
2 | LigF: S. paucimobilis beta-etherase, positive control, GenBank BAA02031.1, SEQ ID NO:513 (protein) MTLKLYSFGPGANSLKPLATLYEKGLEFEQVFVDPSKFEQHSDWFKKINPRGQVPALWHDGKVVTESTVICEYLEDVFPESGNSLRPADPFKRAEMRVWTKWVDEYFCWCVSTIGWAFGIKAIAQKMSDEEFEEHINKNVPIPEQQLKWRRARNGFPQEMLDEEFRKVGVSVARLEETLSKQDYLVDTGYSLADICNFAIANGLQRPGGFFGDYVNQEKTPGLCAWLDRINARPAIKEMFEKSKREDLLKRQNEKVA | 558 rfu/ug | β-etherase activity

— patent US20120196335A1, “LIGF-TYPE TRANSFORMANTS FOR BIOCONVERSION OF LIGNIN-DERIVED COMPOUNDS” (priority 2010, published 2012)
